The source of these data is the Human Domainome abundance scans (Beltran et al. 2025).

± gives the uncertainty stated by the source.

B1: POU domain, class 2, transcription factor 3, residues 186 to 260; numbered along this chain, Q9UKI9 (parent)
chain: SDLEELEKFAKTFKQRRIKLGFTQGDVGLAMGKLYGNDFSQTTISRFEALNLSFKNMCKLKPLLEKWLNDAESSP

This data set covers variants of B1. The data set is described as follows: abundance fitness (aPCA) (normalised: wild type 0, dead -1); higher = more abundant; growth selection in yeast, the domain comes from the species named. The settings on record: Homo sapiens.
On to SDLEELEKFAKTFKQRRIKLGFTQGDVGLAMGKLYGNDFSQTTISRFEALNLSFKNMDKLKPLLEKWLNDAESSP [C58D], for which the abundance fitness is -0.04 ± 0.051. Next, SDLEELEKFAKTFKQRRIKLGFTQGDVGLAMGKLYGNDFSQTTISRFEALNLSFKNMRKLKPLLEKWLNDAESSP [C58R]: 0 ± 0.028; SDLEELEKFAKTFKQRRIKLGFTQGDVGLAMGKLYGNDFSQTTISRFEALNLSFKNMVKLKPLLEKWLNDAESSP [C58V]: -0.019 ± 0.033. The figure for SDLEELEKFAKTFKQRRIKLGFTQGDVGLAMGKLYGNDFSQTTISRFEALNLSFKNMSKLKPLLEKWLNDAESSP [C58S] is 0.026 ± 0.037; for SDLEELEKFAKTFKQRRIKLGFTQGDVGLAMGKLYGNDFSQTTISRFEALNLSFKNMIKLKPLLEKWLNDAESSP [C58I] it is 0.01 ± 0.055; for SDLEELEKFAKTFKQRRIKLGFTQGDVGLAMGKLYGNDFSQTTISRFEALNLSFKNMHKLKPLLEKWLNDAESSP [C58H] it is -0.052 ± 0.13. Next, SDLEELEKFAKTFKQRRIKLGFTQGDVGLAMGKLYGNDFSQTTISRFEALNLSFKNMEKLKPLLEKWLNDAESSP [C58E]: -0.039 ± 0.046; SDLEELEKFAKTFKQRRIKLGFTQGDVGLAMGKLYGNDFSQTTISRFEALNLSFKNMAKLKPLLEKWLNDAESSP [C58A]: 0.027 ± 0.036.

In the case of SDLEELEKFAKTFKQRRIKLGFTQGDVGLAMGKLYGNDFSQTTISRFEALNLSFKNMFKLKPLLEKWLNDAESSP [C58F], the abundance fitness came to 0.005 ± 0.06.

Regarding SDLEELEKFAKTFKQRRIKLGFTQGDVGLAMGKLYGNDFSQTTISRFEALNLSFKNMMKLKPLLEKWLNDAESSP [C58M], the abundance fitness was -0.005 ± 0.045. Next, SDLEELEKFAKTFKQRRIKLGFTQGDVGLAMGKLYGNDFSQTTISRFEALNLSFKNMNKLKPLLEKWLNDAESSP [C58N]: -0.005 ± 0.067; SDLEELEKFAKTFKQRRIKLGFTQGDVGLAMGKLYGNDFSQTTISRFEALNLSFKNMGKLKPLLEKWLNDAESSP [C58G]: -0.031 ± 0.029.

Turning to SDLEELEKFAKTFKQRRIKLGFTQGDVGLAMGKLYGNDFSQTTISRFEALNLSFKNMKKLKPLLEKWLNDAESSP [C58K], the abundance fitness was -0.058 ± 0.068. Next, SDLEELEKFAKTFKQRRIKLGFTQGDVGLAMGKLYGNDFSQTTISRFEALNLSFKNMPKLKPLLEKWLNDAESSP [C58P]: -0.474 ± 0.083; SDLEELEKFAKTFKQRRIKLGFTQGDVGLAMGKLYGNDFSQTTISRFEALNLSFKNMLKLKPLLEKWLNDAESSP [C58L]: -0.02 ± 0.033.

On to SDLEELEKFAKTFKQRRIKLGFTQGDVGLAMGKLYGNDFSQTTISRFEALNLSFKNMWKLKPLLEKWLNDAESSP [C58W], for which the abundance fitness is 0.032 ± 0.035.

In the case of SDLEELEKFAKTFKQRRIKLGFTQGDVGLAMGKLYGNDFSQTTISRFEALNLSFKNMTKLKPLLEKWLNDAESSP [C58T], the abundance fitness was -0.09 ± 0.054. Next, SDLEELEKFAKTFKQRRIKLGFTQGDVGLAMGKLYGNDFSQTTISRFEALNLSFKNMCKEKPLLEKWLNDAESSP [L60E]: -0.847 ± 0.095. The figure for SDLEELEKFAKTFKQRRIKLGFTQGDVGLAMGKLYGNDFSQTTISRFEALNLSFKNMCKDKPLLEKWLNDAESSP [L60D] is -0.601 ± 0.11; for SDLEELEKFAKTFKQRRIKLGFTQGDVGLAMGKLYGNDFSQTTISRFEALNLSFKNMCKAKPLLEKWLNDAESSP [L60A] it is -0.081 ± 0.035.

On to SDLEELEKFAKTFKQRRIKLGFTQGDVGLAMGKLYGNDFSQTTISRFEALNLSFKNMCKFKPLLEKWLNDAESSP [L60F], for which the abundance fitness was -0.079 ± 0.066. The figure for SDLEELEKFAKTFKQRRIKLGFTQGDVGLAMGKLYGNDFSQTTISRFEALNLSFKNMCNLKPLLEKWLNDAESSP [K59N] is -0.026 ± 0.061; for SDLEELEKFAKTFKQRRIKLGFTQGDVGLAMGKLYGNDFSQTTISRFEALNLSFKNMCWLKPLLEKWLNDAESSP [K59W] it is -0.129 ± 0.038; for SDLEELEKFAKTFKQRRIKLGFTQGDVGLAMGKLYGNDFSQTTISRFEALNLSFKNMCILKPLLEKWLNDAESSP [K59I] it is -0.037 ± 0.1.

With SDLEELEKFAKTFKQRRIKLGFTQGDVGLAMGKLYGNDFSQTTISRFEALNLSFKNMCMLKPLLEKWLNDAESSP [K59M], the abundance fitness was -0.056 ± 0.043. Next, SDLEELEKFAKTFKQRRIKLGFTQGDVGLAMGKLYGNDFSQTTISRFEALNLSFKNMCVLKPLLEKWLNDAESSP [K59V]: -0.086 ± 0.032; SDLEELEKFAKTFKQRRIKLGFTQGDVGLAMGKLYGNDFSQTTISRFEALNLSFKNMCELKPLLEKWLNDAESSP [K59E]: 0.053 ± 0.037; SDLEELEKFAKTFKQRRIKLGFTQGDVGLAMGKLYGNDFSQTTISRFEALNLSFKNMCPLKPLLEKWLNDAESSP [K59P]: -0.733 ± 0.081. The figure for SDLEELEKFAKTFKQRRIKLGFTQGDVGLAMGKLYGNDFSQTTISRFEALNLSFKNMCQLKPLLEKWLNDAESSP [K59Q] is -0.03 ± 0.047; for SDLEELEKFAKTFKQRRIKLGFTQGDVGLAMGKLYGNDFSQTTISRFEALNLSFKNMCGLKPLLEKWLNDAESSP [K59G] it is -0.086 ± 0.027; for SDLEELEKFAKTFKQRRIKLGFTQGDVGLAMGKLYGNDFSQTTISRFEALNLSFKNMCTLKPLLEKWLNDAESSP [K59T] it is -0.007 ± 0.043.

Take SDLEELEKFAKTFKQRRIKLGFTQGDVGLAMGKLYGNDFSQTTISRFEALNLSFKNMCFLKPLLEKWLNDAESSP [K59F]: the abundance fitness is 0.06 ± 0.065. Next, SDLEELEKFAKTFKQRRIKLGFTQGDVGLAMGKLYGNDFSQTTISRFEALNLSFKNMCALKPLLEKWLNDAESSP [K59A]: -0.013 ± 0.03.

Take SDLEELEKFAKTFKQRRIKLGFTQGDVGLAMGKLYGNDFSQTTISRFEALNLSFKNMCHLKPLLEKWLNDAESSP [K59H]: the abundance fitness was -0.015 ± 0.21. Next, SDLEELEKFAKTFKQRRIKLGFTQGDVGLAMGKLYGNDFSQTTISRFEALNLSFKNMCDLKPLLEKWLNDAESSP [K59D]: -0.039 ± 0.055; SDLEELEKFAKTFKQRRIKLGFTQGDVGLAMGKLYGNDFSQTTISRFEALNLSFKNMCSLKPLLEKWLNDAESSP [K59S]: -0.033 ± 0.036.

Take SDLEELEKFAKTFKQRRIKLGFTQGDVGLAMGKLYGNDFSQTTISRFEALNLSFKNYCKLKPLLEKWLNDAESSP [M57Y]: the abundance fitness was -0.496 ± 0.12.
